Test results reported in publication PMC9482650, “Quantitative fragmentomics allow affinity mapping of interactomes” (Nature Communications, 2022).

T1: PDZD2_2, O15018
T1 sequence (O15018 329-429, limits assumed, looked up): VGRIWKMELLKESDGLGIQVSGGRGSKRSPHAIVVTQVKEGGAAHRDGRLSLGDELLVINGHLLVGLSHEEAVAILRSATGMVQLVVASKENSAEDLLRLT

T2: DLG3_2, Q92796
T2 sequence (Q92796 221-321, limits assumed, looked up): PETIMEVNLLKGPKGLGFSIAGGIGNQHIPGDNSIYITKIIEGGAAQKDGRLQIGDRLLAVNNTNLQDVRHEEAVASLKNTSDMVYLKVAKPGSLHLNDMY

T3: DFNB31_3, Q9P202
T3 sequence (Q9P202 811-907, limits assumed, looked up): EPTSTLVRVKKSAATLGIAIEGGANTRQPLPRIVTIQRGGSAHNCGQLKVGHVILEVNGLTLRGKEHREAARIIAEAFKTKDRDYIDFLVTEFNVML

T4: MPDZ_12, O75970
T4 sequence (O75970 1857-1958, limits assumed, looked up): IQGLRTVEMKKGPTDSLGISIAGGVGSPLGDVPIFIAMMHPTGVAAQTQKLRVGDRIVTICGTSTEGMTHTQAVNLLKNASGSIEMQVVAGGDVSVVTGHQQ

T5: SNTA1, Q13424
T5 sequence (Q13424 82-180, limits assumed, looked up): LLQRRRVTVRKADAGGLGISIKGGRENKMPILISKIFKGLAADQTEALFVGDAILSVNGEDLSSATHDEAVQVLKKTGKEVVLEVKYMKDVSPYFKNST

T6: GRIP1_4, Q9Y3R0
T6 sequence (Q9Y3R0 467-571, limits assumed, looked up): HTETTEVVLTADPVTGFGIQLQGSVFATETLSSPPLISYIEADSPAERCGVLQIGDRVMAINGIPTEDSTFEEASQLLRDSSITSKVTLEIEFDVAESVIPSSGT

T7: MPP7, Q5T2T1
T7 sequence (Q5T2T1 134-230, limits assumed, looked up): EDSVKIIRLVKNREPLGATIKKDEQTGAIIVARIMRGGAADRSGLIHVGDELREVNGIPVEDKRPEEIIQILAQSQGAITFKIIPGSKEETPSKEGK

T8: MPDZ_5, O75970
T8 sequence (O75970 695-796, limits assumed, looked up): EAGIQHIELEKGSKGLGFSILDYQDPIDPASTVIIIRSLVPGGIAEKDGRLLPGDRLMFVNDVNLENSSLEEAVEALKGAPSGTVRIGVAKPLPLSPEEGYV

T9: MPDZ_10, O75970
T9 sequence (O75970 1624-1722, limits assumed, looked up): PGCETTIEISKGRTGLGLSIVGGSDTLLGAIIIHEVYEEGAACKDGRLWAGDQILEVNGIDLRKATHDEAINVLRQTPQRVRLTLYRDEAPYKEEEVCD

T10: DFNB31_2, Q9P202
T10 sequence (Q9P202 274-371, limits assumed, looked up): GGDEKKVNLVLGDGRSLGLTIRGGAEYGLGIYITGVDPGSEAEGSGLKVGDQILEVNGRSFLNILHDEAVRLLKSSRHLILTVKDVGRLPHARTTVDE

T11: TX1BP3, O14907
T11 sequence (O14907 10-122, limits assumed, looked up): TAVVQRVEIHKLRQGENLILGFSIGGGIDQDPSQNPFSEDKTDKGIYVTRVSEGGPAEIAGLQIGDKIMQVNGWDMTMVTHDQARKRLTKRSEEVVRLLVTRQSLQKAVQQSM

T12: PDZRN3_1, Q9UPQ7
T12 sequence (Q9UPQ7 244-349, limits assumed, looked up): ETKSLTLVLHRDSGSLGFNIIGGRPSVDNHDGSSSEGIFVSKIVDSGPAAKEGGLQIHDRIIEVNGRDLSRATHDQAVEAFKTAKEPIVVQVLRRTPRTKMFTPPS

T13: ARHGAP21, Q5T5U3
T13 sequence (Q5T5U3 45-169, limits assumed, looked up): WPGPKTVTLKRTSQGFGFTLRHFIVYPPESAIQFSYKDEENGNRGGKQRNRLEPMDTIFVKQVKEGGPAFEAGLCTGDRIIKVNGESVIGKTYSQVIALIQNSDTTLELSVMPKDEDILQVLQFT


What follows are binders tested against GRIP2_6, Q9C0E4 (assay: holdup assay). Settings: plain residues with an end cap or a label only (N-terminal biotin on a linker: ado-ado).
Parameters: key: below the threshold = too weak to quantify, mostly under pKd 3.1 to 4

Sequence of GRIP2_6, Q9C0E4 (Q9C0E4 648-740): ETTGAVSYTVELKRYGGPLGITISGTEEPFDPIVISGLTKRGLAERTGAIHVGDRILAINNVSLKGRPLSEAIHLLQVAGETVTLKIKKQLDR

| pKd | Binder |
| --- | --- |
| below the threshold | GTGYDRKDYV [CLDN3, O15551] |
| below the threshold | VLYPREGTEV [FOXI1, Q12951] |

The binders below were run against Inadl_3, Q8NI35 (assay: holdup assay). Settings: plain residues with an end cap or a label only (N-terminal biotin on a linker: ado-ado).
Parameters: key: below the threshold = too weak to quantify, mostly under pKd 3.1 to 4

Sequence of Inadl_3, Q8NI35 (Q8NI35 359-469): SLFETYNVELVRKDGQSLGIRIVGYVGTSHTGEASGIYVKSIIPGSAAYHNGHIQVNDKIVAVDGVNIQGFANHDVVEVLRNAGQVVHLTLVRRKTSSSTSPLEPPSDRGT

| pKd | Binder |
| --- | --- |
| below the threshold | GTGYDRKDYV [CLDN3, O15551] |
| 3.72 | VLYPREGTEV [FOXI1, Q12951] |

What follows are binders tested against T1, PDZD2_2, O15018 (assay: holdup assay). Settings: plain residues with an end cap or a label only (N-terminal biotin on a linker: ado-ado).
Parameters: key: below the threshold = too weak to quantify, mostly under pKd 3.1 to 4

| pKd | Binder |
| --- | --- |
| 4.95 | GTGYDRKDYV [CLDN3, O15551] |
| 4.93 | VLYPREGTEV [FOXI1, Q12951] |

What follows are binders tested against T2, DLG3_2, Q92796 (assay: holdup assay). Settings: plain residues with an end cap or a label only (N-terminal biotin on a linker: ado-ado).
Parameters: key: below the threshold = too weak to quantify, mostly under pKd 3.1 to 4

| pKd | Binder |
| --- | --- |
| below the threshold | GTGYDRKDYV [CLDN3, O15551] |
| 4.59 | VLYPREGTEV [FOXI1, Q12951] |

The binders below were run against TJP1_2, Q07157 (assay: holdup assay). Settings: plain residues with an end cap or a label only (N-terminal biotin on a linker: ado-ado).
Parameters: key: below the threshold = too weak to quantify, mostly under pKd 3.1 to 4

Sequence of TJP1_2, Q07157 (Q07157 181-274): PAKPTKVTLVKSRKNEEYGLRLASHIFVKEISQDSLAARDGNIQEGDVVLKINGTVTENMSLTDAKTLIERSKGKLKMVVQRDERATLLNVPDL

| pKd | Binder |
| --- | --- |
| 3.6 | GTGYDRKDYV [CLDN3, O15551] |
| below the threshold | VLYPREGTEV [FOXI1, Q12951] |

The binders below were run against T3, DFNB31_3, Q9P202 (assay: holdup assay). Settings: plain residues with an end cap or a label only (N-terminal biotin on a linker: ado-ado).
Parameters: key: below the threshold = too weak to quantify, mostly under pKd 3.1 to 4

| pKd | Binder |
| --- | --- |
| 4.06 | GTGYDRKDYV [CLDN3, O15551] |
| below the threshold | VLYPREGTEV [FOXI1, Q12951] |

The binders below were run against T4, MPDZ_12, O75970 (assay: holdup assay). Settings: plain residues with an end cap or a label only (N-terminal biotin on a linker: ado-ado).
Parameters: key: below the threshold = too weak to quantify, mostly under pKd 3.1 to 4

| pKd | Binder |
| --- | --- |
| below the threshold | GTGYDRKDYV [CLDN3, O15551] |
| below the threshold | VLYPREGTEV [FOXI1, Q12951] |

Each binder was assayed against HTRA1, Q92743 (assay: holdup assay). Settings: plain residues with an end cap or a label only (N-terminal biotin on a linker: ado-ado).
Parameters: key: below the threshold = too weak to quantify, mostly under pKd 3.1 to 4

Sequence of HTRA1, Q92743 (Q92743 360-477): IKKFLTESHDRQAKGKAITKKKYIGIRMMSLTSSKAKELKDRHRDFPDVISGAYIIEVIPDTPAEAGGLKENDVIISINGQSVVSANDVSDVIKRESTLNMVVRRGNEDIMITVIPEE

| pKd | Binder |
| --- | --- |
| 4.14 | GTGYDRKDYV [CLDN3, O15551] |
| 4.64 | VLYPREGTEV [FOXI1, Q12951] |

What follows are binders tested against T5, SNTA1, Q13424 (assay: holdup assay). Settings: plain residues with an end cap or a label only (N-terminal biotin on a linker: ado-ado).
Parameters: key: below the threshold = too weak to quantify, mostly under pKd 3.1 to 4

| pKd | Binder |
| --- | --- |
| below the threshold | GTGYDRKDYV [CLDN3, O15551] |
| 4.02 | VLYPREGTEV [FOXI1, Q12951] |

The binders below were run against T6, GRIP1_4, Q9Y3R0 (assay: holdup assay). Settings: plain residues with an end cap or a label only (N-terminal biotin on a linker: ado-ado).
Parameters: key: below the threshold = too weak to quantify, mostly under pKd 3.1 to 4

| pKd | Binder |
| --- | --- |
| below the threshold | GTGYDRKDYV [CLDN3, O15551] |
| below the threshold | VLYPREGTEV [FOXI1, Q12951] |

These binders were tested against T7, MPP7, Q5T2T1 (assay: holdup assay). Settings: plain residues with an end cap or a label only (N-terminal biotin on a linker: ado-ado).
Parameters: key: below the threshold = too weak to quantify, mostly under pKd 3.1 to 4

| pKd | Binder |
| --- | --- |
| below the threshold | GTGYDRKDYV [CLDN3, O15551] |
| below the threshold | VLYPREGTEV [FOXI1, Q12951] |

Each binder was assayed against IL16_1, Q14005 (assay: holdup assay). Settings: plain residues with an end cap or a label only (N-terminal biotin on a linker: ado-ado).
Parameters: key: below the threshold = too weak to quantify, mostly under pKd 3.1 to 4

Sequence of IL16_1, Q14005 (Q14005 210-306): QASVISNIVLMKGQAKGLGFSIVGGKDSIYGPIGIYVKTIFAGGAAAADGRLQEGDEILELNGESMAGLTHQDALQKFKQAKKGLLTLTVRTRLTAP

| pKd | Binder |
| --- | --- |
| below the threshold | GTGYDRKDYV [CLDN3, O15551] |
| 4 | VLYPREGTEV [FOXI1, Q12951] |

What follows are binders tested against Inadl_4, Q8NI35 (assay: holdup assay). Settings: plain residues with an end cap or a label only (N-terminal biotin on a linker: ado-ado).
Parameters: key: below the threshold = too weak to quantify, mostly under pKd 3.1 to 4

Sequence of Inadl_4, Q8NI35 (Q8NI35 547-651): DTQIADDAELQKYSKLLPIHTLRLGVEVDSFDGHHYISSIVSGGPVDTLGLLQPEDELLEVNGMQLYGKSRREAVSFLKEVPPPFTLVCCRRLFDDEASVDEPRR

| pKd | Binder |
| --- | --- |
| below the threshold | GTGYDRKDYV [CLDN3, O15551] |
| below the threshold | VLYPREGTEV [FOXI1, Q12951] |

The binders below were run against LIMK2, P53671 (assay: holdup assay). Settings: plain residues with an end cap or a label only (N-terminal biotin on a linker: ado-ado).
Parameters: key: below the threshold = too weak to quantify, mostly under pKd 3.1 to 4

Sequence of LIMK2, P53671 (P53671 143-248): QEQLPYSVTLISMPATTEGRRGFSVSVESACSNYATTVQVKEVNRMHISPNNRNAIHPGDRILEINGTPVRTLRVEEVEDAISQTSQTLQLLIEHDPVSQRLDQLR

| pKd | Binder |
| --- | --- |
| below the threshold | GTGYDRKDYV [CLDN3, O15551] |
| below the threshold | VLYPREGTEV [FOXI1, Q12951] |

What follows are binders tested against PDLIM1, O00151 (assay: holdup assay). Settings: plain residues with an end cap or a label only (N-terminal biotin on a linker: ado-ado).
Parameters: key: below the threshold = too weak to quantify, mostly under pKd 3.1 to 4

Sequence of PDLIM1, O00151 (O00151 1-87): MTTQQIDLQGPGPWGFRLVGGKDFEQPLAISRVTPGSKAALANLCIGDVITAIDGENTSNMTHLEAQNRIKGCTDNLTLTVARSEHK

| pKd | Binder |
| --- | --- |
| below the threshold | GTGYDRKDYV [CLDN3, O15551] |
| 3.81 | VLYPREGTEV [FOXI1, Q12951] |

These binders were tested against T8, MPDZ_5, O75970 (assay: holdup assay). Settings: plain residues with an end cap or a label only (N-terminal biotin on a linker: ado-ado).
Parameters: key: below the threshold = too weak to quantify, mostly under pKd 3.1 to 4

| pKd | Binder |
| --- | --- |
| below the threshold | GTGYDRKDYV [CLDN3, O15551] |
| 3.66 | VLYPREGTEV [FOXI1, Q12951] |

These binders were tested against T9, MPDZ_10, O75970 (assay: holdup assay). Settings: plain residues with an end cap or a label only (N-terminal biotin on a linker: ado-ado).
Parameters: key: below the threshold = too weak to quantify, mostly under pKd 3.1 to 4

| pKd | Binder |
| --- | --- |
| 3.51 | GTGYDRKDYV [CLDN3, O15551] |
| 3.49 | VLYPREGTEV [FOXI1, Q12951] |

The binders below were run against FRMPD3, Q5JV73 (assay: holdup assay). Settings: plain residues with an end cap or a label only (N-terminal biotin on a linker: ado-ado).
Parameters: key: below the threshold = too weak to quantify, mostly under pKd 3.1 to 4

Sequence of FRMPD3, Q5JV73 (Q5JV73 12-100): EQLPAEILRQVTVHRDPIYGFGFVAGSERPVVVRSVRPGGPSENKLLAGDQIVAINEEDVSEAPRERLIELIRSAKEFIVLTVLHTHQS

| pKd | Binder |
| --- | --- |
| below the threshold | GTGYDRKDYV [CLDN3, O15551] |
| below the threshold | VLYPREGTEV [FOXI1, Q12951] |

The binders below were run against T10, DFNB31_2, Q9P202 (assay: holdup assay). Settings: plain residues with an end cap or a label only (N-terminal biotin on a linker: ado-ado).
Parameters: key: below the threshold = too weak to quantify, mostly under pKd 3.1 to 4

| pKd | Binder |
| --- | --- |
| below the threshold | GTGYDRKDYV [CLDN3, O15551] |
| below the threshold | VLYPREGTEV [FOXI1, Q12951] |

These binders were tested against T11, TX1BP3, O14907 (assay: holdup assay). Settings: plain residues with an end cap or a label only (N-terminal biotin on a linker: ado-ado).
Parameters: key: below the threshold = too weak to quantify, mostly under pKd 3.1 to 4

| pKd | Binder |
| --- | --- |
| below the threshold | GTGYDRKDYV [CLDN3, O15551] |
| 3.73 | VLYPREGTEV [FOXI1, Q12951] |

The binders below were run against T12, PDZRN3_1, Q9UPQ7 (assay: holdup assay). Settings: plain residues with an end cap or a label only (N-terminal biotin on a linker: ado-ado).
Parameters: key: below the threshold = too weak to quantify, mostly under pKd 3.1 to 4

| pKd | Binder |
| --- | --- |
| below the threshold | GTGYDRKDYV [CLDN3, O15551] |
| 4.46 | VLYPREGTEV [FOXI1, Q12951] |

Each binder was assayed against MAGI3_2, Q5TCQ9 (assay: holdup assay). Settings: plain residues with an end cap or a label only (N-terminal biotin on a linker: ado-ado).
Parameters: key: below the threshold = too weak to quantify, mostly under pKd 3.1 to 4

Sequence of MAGI3_2, Q5TCQ9 (Q5TCQ9 398-503): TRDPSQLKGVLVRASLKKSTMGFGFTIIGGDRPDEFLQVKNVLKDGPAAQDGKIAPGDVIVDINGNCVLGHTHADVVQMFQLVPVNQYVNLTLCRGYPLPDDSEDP

| pKd | Binder |
| --- | --- |
| below the threshold | GTGYDRKDYV [CLDN3, O15551] |
| 4.52 | VLYPREGTEV [FOXI1, Q12951] |

What follows are binders tested against T13, ARHGAP21, Q5T5U3 (assay: holdup assay). Settings: plain residues with an end cap or a label only (N-terminal biotin on a linker: ado-ado).
Parameters: key: below the threshold = too weak to quantify, mostly under pKd 3.1 to 4

| pKd | Binder |
| --- | --- |
| 3.83 | GTGYDRKDYV [CLDN3, O15551] |
| 4 | VLYPREGTEV [FOXI1, Q12951] |

These binders were tested against MAGI2_2, Q86UL8 (assay: holdup assay). Settings: plain residues with an end cap or a label only (N-terminal biotin on a linker: ado-ado).
Parameters: key: below the threshold = too weak to quantify, mostly under pKd 3.1 to 4

Sequence of MAGI2_2, Q86UL8 (Q86UL8 410-522): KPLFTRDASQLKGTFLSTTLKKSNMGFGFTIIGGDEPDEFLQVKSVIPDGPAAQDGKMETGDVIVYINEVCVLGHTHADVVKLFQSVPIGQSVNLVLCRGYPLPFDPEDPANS

| pKd | Binder |
| --- | --- |
| below the threshold | GTGYDRKDYV [CLDN3, O15551] |
| 3.74 | VLYPREGTEV [FOXI1, Q12951] |
